Results from paper PMC5551564 (The Journal of Experimental Medicine, 2017).

Molecular target: T1, human IL-17RE (Thr155-Ser451), soluble form (human, UniProt Q8NFR9 155-451)
T1 sequence (looked up): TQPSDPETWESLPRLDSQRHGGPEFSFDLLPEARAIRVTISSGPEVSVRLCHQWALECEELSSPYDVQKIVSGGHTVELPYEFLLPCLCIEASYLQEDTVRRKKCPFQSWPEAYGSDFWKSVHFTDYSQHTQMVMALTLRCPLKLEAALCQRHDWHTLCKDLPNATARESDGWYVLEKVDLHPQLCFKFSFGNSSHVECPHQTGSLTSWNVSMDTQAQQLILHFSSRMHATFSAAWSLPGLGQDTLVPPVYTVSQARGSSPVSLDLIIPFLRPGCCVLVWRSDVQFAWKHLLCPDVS
Experiment: SEC

B1: human IL-17c (residues His19-Val197), soluble form (ligand, UniProt Q9P0M4 19-197, looked up)
chain: HHDPSLRGHPHSHGTPHCYSAEELPLGQAPPHLLARGAKWGQALPVALVSSLEAASHRGRHERPSATTQCPVLRPEEVLEADTHQRSISPWRYRVDTDEDRYPQKLAFAECLCRGCIDARTGRETAALNSVRLLQSLLVLRRRPCSRDGSGLPTPGAFAFHTEFIHVPVGCTCVLPRSV
B1: binds.
